The values below come from patent US20170240596A1.

This test addresses Prostate-specific membrane antigen (PSMA) (human), Q04609. The test is described as follows: apparent Kd, flow cytometry, FAM-labeled peptide on PSMA-positive LNCaP cells, 4 C. Conditions: remark: other sources report otherwise.

No end group written: not given here.

Sequence of Prostate-specific membrane antigen (PSMA) (human), Q04609 (Q04609 whole entry): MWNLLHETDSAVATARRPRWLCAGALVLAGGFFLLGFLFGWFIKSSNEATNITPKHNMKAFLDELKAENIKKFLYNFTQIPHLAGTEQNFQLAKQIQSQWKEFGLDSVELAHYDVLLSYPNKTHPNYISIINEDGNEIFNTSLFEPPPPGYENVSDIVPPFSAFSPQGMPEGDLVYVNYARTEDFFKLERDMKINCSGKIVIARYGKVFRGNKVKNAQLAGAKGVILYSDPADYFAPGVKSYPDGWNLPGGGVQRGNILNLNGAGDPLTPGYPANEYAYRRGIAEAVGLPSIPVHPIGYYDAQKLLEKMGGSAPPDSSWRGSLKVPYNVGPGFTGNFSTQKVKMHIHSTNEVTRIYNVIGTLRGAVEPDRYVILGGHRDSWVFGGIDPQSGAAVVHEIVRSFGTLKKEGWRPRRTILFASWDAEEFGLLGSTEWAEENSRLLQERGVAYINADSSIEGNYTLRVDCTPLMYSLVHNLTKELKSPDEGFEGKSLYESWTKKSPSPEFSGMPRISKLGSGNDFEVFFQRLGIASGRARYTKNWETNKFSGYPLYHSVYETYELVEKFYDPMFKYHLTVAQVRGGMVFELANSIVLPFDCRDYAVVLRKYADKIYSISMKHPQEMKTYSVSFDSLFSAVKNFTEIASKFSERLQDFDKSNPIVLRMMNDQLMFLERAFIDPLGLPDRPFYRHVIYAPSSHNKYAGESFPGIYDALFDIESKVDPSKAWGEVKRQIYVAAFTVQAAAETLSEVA

WQPDTAHHWATL (also: FAM label, position not given here) [FAM-labeled WQP peptide …]: the Kd turned out to be 23.6 µM.
